Entries after “also recorded” stand apart in the source; their conditions may differ.
B1: wt-CE: non-fluorinated COMPcc-Elastin block polymer (SEQ ID NO: 16) (protein)
chain: MRGSHHHHHHGSACELAATATATATATATAACGDLAPQMLRELQETNAALQDVRELLRQQVKEITFLKNTVMESDASGLQAATATATATATATAVDKPIAASAVPGVGVPGVGVPGFGVPGVGVPGVGVPGVGVPGVGVPGFGVPGVGVPGVGVPGVGVPGVGVPGFGVPGVGVPGVGVPGVGVPGVGVPGFGVPGVGVPGVGVPGVGVPGVGVPGFGVPGVGVPGVGVPLEGSGTGAKL
B2: pFF-ECE: Elastin-COMPcc-Elastin triblock protein polymer with phenylalanine residues replaced by p-fluorophenylalanine (SEQ ID NO: 17) (protein)
chain: MRGSHHHHHHGSKPIAASAVPGVGVPGVGVPGFGVPGVGVPGVGVPGVGVPGVGVPGFGVPGVGVPGVGVPGVGVPGVGVPGFGVPGVGVPGVGVPGVGVPGVGVPGFGVPGVGVPGVGVPGVGVPGVGVPGFGVPGVGVPGVGVPLEGSELAATATATATATATAACGDLAPQMLRELQETNAALQDVRELLRQQVKEITFLKNTVMESDASGLQAATATATATATATAVDKPIAASAVPGVGVPGVGVPGFGVPGVGVPGVGVPGVGVPGVGVPGFGVPGVGVPGVGVPGVGVPGVGVPGFGVPGVGVPGVGVPGVGVPGVGVPGFGVPGVGVPGVGVPGVGVPGVGVPGFGVPGVGVPGVGVPLEGSGTGAKLN
modifications: Phe replaced by p-fluorophenylalanine
B3: wt-ECE: non-fluorinated Elastin-COMPcc-Elastin block polymer (SEQ ID NO: 17) (protein)
chain: B2 chain
B4: pFF-EC: Elastin-COMPcc diblock protein polymer with phenylalanine residues replaced by p-fluorophenylalanine (SEQ ID NO: 15) (protein)
chain: MRGSHHHHHHGSKPIAASAVPGVGVPGVGVPGFGVPGVGVPGVGVPGVGVPGVGVPGFGVPGVGVPGVGVPGVGVPGVGVPGFGVPGVGVPGVGVPGVGVPGVGVPGFGVPGVGVPGVGVPGVGVPGVGVPGFGVPGVGVPGVGVPLEGSELAATATATATATATAACGDLAPQMLRELQETNAALQDVRELLRQQVKEITFLKNTVMESDASGLQAATATATATATATAVDLQPS
modifications: Phe replaced by p-fluorophenylalanine
B5: wt-EC: non-fluorinated Elastin-COMPcc block polymer (SEQ ID NO: 15) (protein)
chain: B4 chain
B6: pFF-CE: COMPcc-Elastin diblock protein polymer with phenylalanine residues replaced by p-fluorophenylalanine (SEQ ID NO: 23) (protein)
chain: MRGSHHHHHHGSACELAATATATATATATAACGDLAPQMLRELQETNAALQDVRELLRQQVKEITFLKNTVMESDASGLQAATATATATATATAVDKPIAASAVPGVGVPGVGVPGFGVPGVGVPGVGVPGVGVPGVGVPGFGVPGVGVPGVGVPGVGVPGVGVPGFGVPGVGVPGVGVPGVGVPGVGVPGFGVPGVGVPGVGVPGVGVPGVGVPGFGVPGVGVPGVGVPLEGSGTGAKLN
modifications: Phe replaced by p-fluorophenylalanine

Key:
[1] = Microrheology of protein solutions (bead tracking, G′/G″); type: physicochemical
Protocol: Microrheology. To assess the mechanical properties of all proteins, microrheology was performed using an inverted Leica DM-138 IRB microscope with a 20× objective lens at 22 and 42° C., maintained by a Lincum temperature-controlled cell. […] A total of 2 μL of 2 wt % fluorescent-amidated polystyrene beads (1.0 μm) was added to 10 μL of protein solution. Deionized water, 2 wt % beads, was measured as a control. Brownian motion of the beads was observed by Peltier-cooled video camera (QiCam) and digitally recorded. Mean square displacement (MSD) measurements of the beads were determined by IDL software (Research Systems, Inc.). Using the comprehensive Stokes-Einstein equation, the elastic modulus (G′) and viscous modulus (G″) were determined as a function of angular frequency (ω).
Mechanical Properties. Bulk rheological properties of the protein polymers were evaluated by microrheology (FIG. 4).
Upon fluorination, more depressed concentration-dependent percolation points for the protein polymers were observed. […] Two types of modifications to the rheological behavior are observed from EC and CE sets of constructs.

[2] = Inverse temperature transition (Tt) by UV/vis absorbance at 350 nm; type: physicochemical; conditions: 4 μM protein in 10 mM phosphate buffer, pH 8.0, heated 10 to 65° C.
Protocol: UV/Vis Spectroscopy. UV/vis spectroscopy was performed on a Cary 100 UV/vis spectrometer (Agilent) to determine the inverse temperature transition (Tt) of 4 μM protein in 10 mM phosphate buffer, pH 8.0. The absorbance at 350 nm was measured as each protein sample was heated from 10 to 65° C., at a heating rate of 0.5° C./min.
Temperature-Dependent Supramolecular Assembly. The effect of temperature on the supramolecular assembly of the proteins was examined via absorption at 350 nm. The inverse temperature transition (Tt) was determined via temperature-dependent absorption (FIG. 3, insets). The Tt values for all fluorinated block polymers were different, affirming the significance of block orientation and number. […] In comparison to the wt proteins, fluorination appeared to depress the Tt of CE protein from 36 to 28° C.

| Molecule | rheological character ([1]; 1.25 mg mL^−1, 22° C.) | rheological character ([1]; 2.5 mg mL^−1, 22° C.) | rheological character ([1]; 2.5 mg mL^−1, 42° C.) | rheological character ([1]; up to 10 mg mL^−1) | inverse temperature transition (Tt) [2] [°C] | rheological character ([1]; 1.25 mg mL^−1, 42° C.) | rheological character ([1]; 10 mg mL^−1) | rheological character ([1]; concentrations below 2.5 mg mL^−1) |
| --- | --- | --- | --- | --- | --- | --- | --- | --- |
| B1 | viscous/viscoelastic | viscous/viscoelastic | viscoelastic character | predominantly viscous | 36 |  |  |  |
| B2 |  |  |  |  | 32 | elastic network formation |  |  |
| B3 |  |  |  | viscoelastic |  | completely viscous |  |  |
| B4 | viscoelastic behavior | viscoelastic behavior | more elastic character |  | 25 |  |  |  |
| B5 | predominantly viscous |  | more elastic character |  |  |  | elastic network | predominantly viscous |
| B6 | viscous/viscoelastic | viscous/viscoelastic | elastic behavior; also recorded: dominant elastic modulus |  | 28 |  |  |  |
